The values below come from publication PMC7849316, “Tyrosine phosphorylation regulates hnRNPA2 granule protein partitioning and reduces neurodegeneration” (The EMBO Journal, 2020).

For the test, the target named is T1, ch‐TOG (CKAP5) TOG domain 1 (TOG D1, residues 1–250) (UniProt Q14008 1-250, AlexaFluor 555 or 405 (NHS ester) on ~1% of the protein in the droplet assays; 2H 15N labeled for the PRE experiments).
T1 construct: microtubule-associated protein ch-TOG (CKAP5), TOG domain 1, residues 1–250; also called TOG domain 1 (D1); source: E. coli BL21 Star (DE3), purified (HisTrap, Superdex 75, TEV cleavage, second HisTrap)
T1 sequence (Q14008 1-250): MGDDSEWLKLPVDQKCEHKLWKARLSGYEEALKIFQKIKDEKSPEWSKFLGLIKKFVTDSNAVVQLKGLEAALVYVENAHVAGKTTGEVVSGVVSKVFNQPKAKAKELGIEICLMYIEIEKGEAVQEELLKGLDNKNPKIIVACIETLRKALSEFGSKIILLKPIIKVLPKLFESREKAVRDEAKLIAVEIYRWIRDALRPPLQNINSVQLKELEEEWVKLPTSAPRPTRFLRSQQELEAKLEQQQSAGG
Put plainly: NMR paramagnetic relaxation enhancement (PRE); TROSY-based 1HN R2 at 850 MHz, 25°C; NMR-invisible hnRNPA2 LC with a paramagnetic label at S285C or S329C mixed with 2H 15N TOG D1; paramagnetic against diamagnetic samples. The conditions noted are these: both partners purified.

Changes are numbered by the printed parent chain. Numbers in names are those of the source.

B1: hnRNPA2 LC S285C with a paramagnetic label (MTSL) at the engineered cysteine (domain or fragment, human, UniProt P22626-2 190-341, looked up)
chain: GRGGNFGFGDSRGGGGNFGPGPGSNFRGGSDGYGSGRGFGDGYNGYGGGPGGGNFGGSPGYGGGRGGYGGGGPGYGNQGGGYGGGYDNYGGGNYGCGNYNDFGNYNQQPSNYGPMKSGNFGGSRNMGGPYGGGNYGPGGSGGSGGYGGRSRY
modifications: small (~120 Da) paramagnetic label (MTSL) at the engineered cysteine 285
notes: hnRNPA2 low complexity domain, human, residues 190–341; Purified and labeled as described in Ryan et al, 2018; source: E. coli BL21 Star (DE3), purified from inclusion bodies (His-tag purification), MTSL-labeled
Regarding B1, the Kd (commonly the equilibrium constant for the complex coming apart) was above 100 µM.

B2: hnRNPA2 LC S329C with a paramagnetic label (MTSL) at the engineered cysteine (domain or fragment, human, UniProt P22626-2 190-341, looked up)
chain: B1 chain with C96S, S140C
modifications: small (~120 Da) paramagnetic label (MTSL) at the engineered cysteine 329
notes: as for B1
In the case of B2, the Kd is above 100 µM.
